Assay results taken from article PMC5088048 (Structure (London, England : 1993), 2016).

T1: RING1B, full-length (UniProt Q99496 1-336)
T1 sequence (looked up): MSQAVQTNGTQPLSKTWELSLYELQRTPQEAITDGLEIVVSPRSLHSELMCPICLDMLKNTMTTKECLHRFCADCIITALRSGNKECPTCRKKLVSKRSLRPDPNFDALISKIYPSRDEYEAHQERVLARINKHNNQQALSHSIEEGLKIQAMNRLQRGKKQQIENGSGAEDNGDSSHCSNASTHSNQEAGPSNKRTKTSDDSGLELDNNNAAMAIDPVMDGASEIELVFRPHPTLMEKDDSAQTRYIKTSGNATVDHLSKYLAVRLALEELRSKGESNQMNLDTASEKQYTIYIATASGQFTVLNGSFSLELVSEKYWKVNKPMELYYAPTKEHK

B1: BCORL1 PUFD (1594–1711) (domain or fragment)
chain: METRDDFMFELSDKPLLPCYNLQVSVSRGPCNWFLFSDVLKRLKLSSRIFQARFPHFEITTMPKAEFYRQVASSQLLTPAERPGGLDDRSPPGSSETVELVRYEPDLLRLLGSEVEFQSCNS
B2: PCGF1 150–255/BCORL1 PUFD dimer (complex)
chain 1: LPFSSFDHSKAHYYRYDEQLNLCLERLSSGKDKNKSVLQNKYVRCSVRAEVRHLRRVLCHRLMLNPQHVQLLFDNEVLPDHMTMKQIWLSRWFGKPSPLLLQYSVK
chain 2: B1 chain
B3: PCGF1 35–255 (RING finger and RAWUL domains) (domain or fragment, UniProt Q9BSM1 35-255, looked up)
chain: RVKIKDLNEHIVCCLCAGYFVDATTITECLHTFCKSCIVKYLQTSKYCPMCNIKIHETQPLLNLKLDRVMQDIVYKLVPGLQDSEEKRIREFYQSRGLDRVTQPTGEEPALSNLGLPFSSFDHSKAHYYRYDEQLNLCLERLSSGKDKNKSVLQNKYVRCSVRAEVRHLRRVLCHRLMLNPQHVQLLFDNEVLPDHMTMKQIWLSRWFGKPSPLLLQYSVK

Assays:
[1] = target: B3; assay: AUC
RING1B, full-length = target: T1, RING1B, full-length; assay: AUC
[2] = target: KDM2B 1059–1336/SKP1 heterodimer (UniProt Q8NHM5 1059-1336; P63208 2-163); assay: ITC
Sequence of KDM2B 1059–1336/SKP1 heterodimer (Q8NHM5 1059-1336, chain 1 of 2): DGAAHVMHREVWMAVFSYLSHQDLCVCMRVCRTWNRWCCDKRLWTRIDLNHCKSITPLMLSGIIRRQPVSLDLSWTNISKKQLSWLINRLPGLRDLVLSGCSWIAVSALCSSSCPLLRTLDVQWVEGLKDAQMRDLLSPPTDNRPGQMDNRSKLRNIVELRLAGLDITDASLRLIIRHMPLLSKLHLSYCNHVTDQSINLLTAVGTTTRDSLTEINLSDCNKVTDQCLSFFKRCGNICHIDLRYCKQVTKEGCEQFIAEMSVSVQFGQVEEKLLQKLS
Sequence of KDM2B 1059–1336/SKP1 heterodimer (P63208 2-163, chain 2 of 2): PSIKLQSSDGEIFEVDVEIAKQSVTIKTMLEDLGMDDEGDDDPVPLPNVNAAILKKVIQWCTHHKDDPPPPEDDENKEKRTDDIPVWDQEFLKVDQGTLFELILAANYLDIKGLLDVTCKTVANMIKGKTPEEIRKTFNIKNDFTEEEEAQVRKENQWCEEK

stoichiometry N [1] | stoichiometry N (RING1B, full-length) | Kd [2] [nM] | Binder
1 | 1 | – | B1
– | – | 2800 | B2
– | 1 | – | B3
